Where a chain is given by its changes, count along the chain named. Ends that are not written are not given here.
T1: BSA-PEP3 peptide (also: conjugated to BSA)
T1 peptide: PWNASWSNKSLDDIW

B1: anti-PEP3 mAb 5E12 (antibody, V domains shown)
VH: QIQLVQSGPELKKPGETVKISCKASGYTFRTYGMSWVKQAPGKGLKWMGWINTYSGVPRYVDDFKGRFALSLETSASTAYLQINNLKSEDTATYFCVREGYSYYGSSFHTMDYWGQGTSVTVSS
VL: DIQMTQTPLTLSVTIGHPASISCKSSQSLLHTNGKIYLNWLLQRPGQSPKRLIYLVSKLDSGVPDRFSGSGSGTDFTLKISRVEAEDLGVYYCLQSTHFPQTFGGGTKLEIK
B2: anti-PEP3 mAb 8D5 (antibody, V domains shown)
VH: QVQLQQPGAELIEPGTSVKLSCKASGYTFTTYWMHWVKQRPGQGLEWIGMIHPNSGDTFYNENFKNKATLTVDISSSTVYMELSSLTSEDSAVYSCVKAGTGALDYWGQGTTLTVSS
VL: DVVMTQTPLSLPVSLGDQASISCRSSQSIVHSNRYTYLEWYLQRPGQSLKLLIYGVSNRFSGVPDRFSGSGSGTDFILKISRVEAEDMGVYYCFQGTHVPFTFGSGTKLEIK
B3: anti-PEP3 gp41 mAb 4G1 (antibody, V domains shown)
VL: B2 VL with P12C, S25T, R44K, S48P, V56I, S57A, I77T, F94L
V domain: QVQLQQPGAELVKPGASVKLSCKASGYIFRNYWMHWVKQRPGQGLEWIGMIHPNSDITHYNEKFKNRATLTVDKSSSTAYMQLNSLTSEDSAVYYCARGGLGVFDYWGQGTALRVSS
B4: anti-PEP3 mAb 15B4 (antibody, V domains shown)
VH: QVQLQQSGPELVRPGTSVKISCKAPGYSFTSHWMQWLRQRPGQGLEWIGEIFPGSGKTYYNEKFKDKATLTADTSSTTVYMQFSSLTSEDSAVYFCASDYDGGDYWGQGTTLTVSS
VL: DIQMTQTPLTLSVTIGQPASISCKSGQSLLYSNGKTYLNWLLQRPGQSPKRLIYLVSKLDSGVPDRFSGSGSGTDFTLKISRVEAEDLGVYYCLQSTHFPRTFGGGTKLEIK
B5: anti-PEP3 mAb 3A2 (antibody, V domains shown)
VH: QVQLQQPGAELVKPGASVKLSCKASGYIFTNYWMHWVRQRPGQGPEWIGMIHPNRGDLHYSEKFNNKATLTVDKSSSTAYMQLNSLASEDSAVYFCARAGLGVFDYWGQGSTLTVSS
VL: DVVMTQTPLSLPVSLGDQVSMSCRSSQSIEHSNRNTYLEWYLHKPGQAPQLLIYGVSNRFTGVPDRFSGSGSGTDFTLKISRVEAEDMGVYHCLQGTHVPFTFGSGTKLEIK
B6: anti-PEP3 mAb 9B12 (antibody, V domains shown)
VH: QVQLQQSGPELVKPGASVKISCKASGYGFSDSWMNWVKQRPGKGLDWIGRIYPGDGDTDYNGKFKDKATLTADKSSTTAYMQLSSLTSEDSAVYFCAYLGHWGQGTLVTVSA
VL: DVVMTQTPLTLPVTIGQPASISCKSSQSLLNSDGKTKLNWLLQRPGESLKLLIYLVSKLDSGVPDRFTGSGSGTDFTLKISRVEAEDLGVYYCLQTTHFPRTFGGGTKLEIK

biological target: T2, HIV-1 MN gp41 recombinant protein produced in E. coli (565-771Delta642-725) (HIV-1 MN); test: ELISA

Row | Binder | EC50 [µg/mL]
1 | B1 | > 13
2 | B2 | 0.02
3 | B3 | 0.005
4 | B4 | 0.3
5 | B5 | 0.02
6 | B6 | > 30

biological target: T3, HIV-1 MN gp41 (a.a. 542-666) produced in S2 cells (UniProt P05877 542-666); test: ELISA

Row | Binder | EC50 [µg/mL]
7 | B2 | 0.09
8 | B5 | 0.78

biological target: T4, HXB2 gp41 recombinant protein (a.a. 534-681) (UniProt P04578 534-681); test: ELISA

Row | Binder | EC50 [µg/mL]
9 | B2 | 0.0005
10 | B4 | 0.12
11 | B5 | 0.0044

biological target: T3, HIV-1 MN gp41 (a.a. 542-666) produced …; test: ELISA; remark: another data set of the same source

Row | Binder | EC50 [µg/mL]
12 | B1 | > 19
13 | B2 | 0.09
14 | B4 | > 11
15 | B5 | 0.78
16 | B6 | > 700

Biological target: T1, BSA-PEP3 peptide
Test: ELISA

Row | Binder | EC50 [µg/mL]
17 | B1 | 0.015
18 | B2 | 0.006
19 | B4 | 0.02
20 | B5 | 0.007
21 | B6 | 0.02

biological target: T4, HXB2 gp41 recombinant protein (a.a. …); test: ELISA; remark: another data set of the same source

Row | Binder | EC50 [µg/mL]
22 | B1 | > 20
23 | B2 | 0.0005
24 | B4 | 0.12
25 | B5 | 0.0044
26 | B6 | > 137

biological target: T2, HIV-1 MN gp41 recombinant protein …; test: ELISA; remark: another data set of the same source

Row | Binder | EC50 [µg/mL]
27 | B1 | > 13
28 | B2 | 0.02
29 | B3 | 0.005
30 | B4 | 0.3
31 | B5 | 0.02
32 | B6 | > 30

Biological target: T1, BSA-PEP3 peptide
Test: ELISA
Remark: another data set of the same source

Row | Binder | EC50 [µg/mL]
33 | B1 | 0.015
34 | B2 | 0.006
35 | B4 | 0.02
36 | B5 | 0.007
37 | B6 | 0.02

biological target: T4, HXB2 gp41 recombinant protein (a.a. …); test: sandwich ELISA; capture Ab

Row | Binder | EC50 [µg/mL]
38 | B2 | 0.018
39 | B4 | 0.355
40 | B5 | 0.0098

biological target: T3, HIV-1 MN gp41 (a.a. 542-666) produced …; test: ELISA; curve not in saturation

Row | Binder | EC50 [µg/mL]
41 | B1 | > 19
42 | B4 | > 11
43 | B6 | > 700

biological target: T4, HXB2 gp41 recombinant protein (a.a. …); test: ELISA; curve not in saturation

Row | Binder | EC50 [µg/mL]
44 | B1 | > 20
45 | B6 | > 137

Source: patent US20220281959A1 (published 2022)
